Data as given in patent CN114395037A (SHENZHEN PEOPLE HOSPITAL, dated 2022).

Biological target: T1, CRT N+P结构域 (CALR N+P) (UniProt P27797 18-308)
T1 construct: range 18-308; The ELISA and SPR sections say only 'CRT蛋白' or '纯化抗原蛋白'; also called CRT蛋白; 钙网蛋白; not shown: His tag (Ni purification, anti-His WB)
T1 sequence (looked up): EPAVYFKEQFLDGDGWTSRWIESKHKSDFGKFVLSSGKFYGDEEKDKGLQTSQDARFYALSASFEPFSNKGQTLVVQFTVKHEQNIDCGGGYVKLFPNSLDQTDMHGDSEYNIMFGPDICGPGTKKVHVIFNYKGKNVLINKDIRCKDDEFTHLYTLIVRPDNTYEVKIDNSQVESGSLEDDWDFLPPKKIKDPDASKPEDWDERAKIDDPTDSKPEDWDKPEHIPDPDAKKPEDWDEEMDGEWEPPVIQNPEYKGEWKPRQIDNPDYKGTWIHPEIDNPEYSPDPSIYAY
Test: SPR (Biacore), antigen protein immobilised on the chip, nanobody as analyte

B1: 204纳米抗体 (VHH)
VHH: AVQLVESGGGLVQAGGSLRLSCVASGRPFSLYAVGWFRQAPGKAREFVAAISRSGSTTDHADSVKGRFTVSRDNDANTVSLLMSNLKPEDTAIYYCAAARSTRGYDYWGQGTQVTVSS
notes: Alpaca-derived nanobody from a naive phage display library, expressed in E. coli with an HA tag; not shown: fused HA tag (and a tag for Ni purification, vector PET-14B)
Kd: 0.53 nM
